From patent US12331106B2, “Anti-angiopoietin-2 antibodies that induce Tie2 activation” (Institute for Basic Science, priority 2018, dated 2025)
Entries after “also recorded” stand apart in the source; their conditions may differ. Where two headings read alike, the source gives them in different places.

Experiments:
hAng2-RBD = target: T1, hAng2-RBD (Homo sapiens, UniProt O15123); assay type: binding; settings: for Relative Uptake (Da) Δ: 4B9
T1 construct: made in house; host or cells: HEK293F
T1 sequence (O15123 276-496): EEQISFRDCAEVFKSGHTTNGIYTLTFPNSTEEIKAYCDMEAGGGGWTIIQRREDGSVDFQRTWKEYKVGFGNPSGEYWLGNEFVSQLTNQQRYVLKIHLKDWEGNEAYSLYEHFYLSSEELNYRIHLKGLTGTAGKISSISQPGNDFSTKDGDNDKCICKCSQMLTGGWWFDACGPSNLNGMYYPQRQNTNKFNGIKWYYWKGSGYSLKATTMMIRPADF
Experimental: The antigenic determinants (epitopes) of hAng2 recognized by mouse monoclonal antibodies, 2C8 and 4B9, were analyzed by HDX-MS (Hydrogen/deuterium exchange-mass spectrometry) technique. HDX-MS analysis methods are described in the following articles; Houde D, Engen J R (2013) Methods Mol. Biol. 988: 269-89 and Houde et al. (2011) J. Pharm. Sci. 100 (6), 2071.
Recombinant hAng2-RBD protein was used to analyze the epitopes of antibodies 2C8 and 4B9. […] The prepared hAng2-RBD/antibody complexes were diluted 15 times with deuterium labeling buffer, labeled at various time, and then quenched with the same volume of quenching buffer. The labeling reaction time was 0 min (undeuterium), 0.33 min, 10 min, 60 min and 240 min. However, in undeuterium condition, the deuterium labeling buffer was replaced with equilibrium buffer and the reaction was immediately stopped with quenching buffer. For mass spectrometry, the deuterium labeled hAng2-RBD/antibody samples were loaded on a pepsin column and peptide digestion was proceeded.
The deuterium uptake difference between hAng2-RBD alone and the hAng2-RBD-antibody complex conditions was comparatively analyzed, and a region showing a distinct decrease in the deuterium uptake is either a peptide to which the antibody binds directly, or a structurally changed region. When the deuterium uptake difference between hAng2-RBD alone and the hAng2-RBD-antibody complex was 0.5-1 Da or more, it was considered significant.
In the case of antibody 4B9, it cannot be ruled out that an undetermined region (residues 25 to 40 of SEQ ID NO: 2) can be included in the scope of the epitope. The epitope analysis results for each antibody are shown in different colors on the 3D structure of hAng2-RBD, which was generated using PyMol software (FIG. 2).

[1] = tested on: choroidal neovascularization (CNV); assay: Laser-induced CNV model, intravitreal injection: CNV regression and vascular leakage; assay type: in vivo, mice; settings: 5 μg intravitreal at 7 days
Experimental: 2C8H11 antibody was tested for its ability to inhibit choroidal neovascularization (CNV), the hallmark of wet age-related macular degeneration (AMD) using laser-induced CNV model. After dilation of pupils with 5 mg/ml phenylephrine and 5 mg/ml tropicamide eye drops (Santen Pharmaceutical) and instillation of 0.5% proparacaine hydrochloride eye drops (Alcon) for topical anesthesia, laser photocoagulator (Lumenis Inc.) with a slit lamp delivery system was used with a glass coverslip as a contact lens to visualize the retina. Sufficient laser energy (532 nm wavelength, 250 mW power, 100 ms duration, 50 μm spot size) was delivered in 4 locations for each eye (the 3, 6, 9 and 12 o'clock positions of the posterior pole). Only burns that produced a bubble at the time of laser photocoagulation, indicating the rupture of the Bruch's membrane, were included in this study. Spots containing hemorrhage at the laser site were excluded from the analysis. To recapitulate a clinical situation, 2C8H11 (5 μg) was administered intravitreally to the mice at 7 days after laser photocoagulation (FIG. 13A). As a control or as for comparison, Fc or VEGF-Trap (5 μg each) was administered in the same manner to the mice. To intravitreally administer indicated reagents, ˜1 μl (5 mg/ml) containing 5 μg of each reagent was injected into the vitreal cavity using the Nanoliter 2000 micro-injector (World Precision Instruments) fitted with a glass capillary pipette. CD31+CNV volumes of the retinal pigment epithelium (RPE)-choroid-sclera flat mounts were calculated using the MATLAB® Image Processing Toolbox™ (Math Works, a comprehensive set of reference-standard algorithms and workflow apps for image processing, analysis, visualization, and algorithm development) at 14 days after laser photocoagulation. Anti-CD31 antibody (1:200, Millipore®) was used for the detection of endothelial cells of CNV. […] Combined fluorescein angiography (FA) and indocyanine green angiography (ICGA) enabled us to measure vascular leakage at the neovessels around the laser injury site. Continuous-wave laser modules at 488 nm and 785 nm were used as excitation sources for fluorescein and ICG, respectively. A raster scanning pattern of excitation lasers was achieved by a scanner system consisting of a rotating polygonal mirror (MC-5; Lincoln Laser) and a galvanometer-based scanning mirror (6230H; Cambridge technology), and delivered to the back aperture of an imaging lens. A high numerical aperture (NA) objective lens (PlanApo λ, NA 0.75; Nikon) was used as the imaging lens to provide wide-field fundus fluorescence images. Fluorescence signals detected by photomultiplier tubes (R9110; Hamamatsu Photonics) were digitized by frame grabber and reconstructed to images with size of 512×512 pixels per frame in real time. To visualize late-phase (6 min) FA and ICGA images utilizing the angiography system, 10 mg of fluorescein sodium (Alcon) and 0.15 mg of ICG (Daiichi Pharmaceutical) were administered intraperitoneally and intravenously, respectively. The imaging procedure was performed under systemic anesthesia and pupil dilation to improve the quality of images. Leaky areas from CNV were calculated as the total measured hyperfluorescent areas in FA images divided by the total measured CNV areas in ICGA images using a Java-based imaging software (ImajeJ; National Institutes of Health). […] Thus, the magnitude of the suppression of CNV and vascular leakage was quantitatively indistinguishable between VEGF-Trap and 2C8H11 in the mouse model of laser-induced CNV.

[2] = residues 14-23 (SEQ ID NO: 2), exposure time 0.00 min
[3] = residues 14-23 (SEQ ID NO: 2), exposure time 0.33 min
[4] = residues 14-23 (SEQ ID NO: 2), exposure time 10.00 min
[5] = residues 14-23 (SEQ ID NO: 2), exposure time 60.00 min
[6] = residues 14-23 (SEQ ID NO: 2), exposure time 240.00 min
[7] = residues 14-24 (SEQ ID NO: 2), exposure time 0.00 min
[8] = residues 14-24 (SEQ ID NO: 2), exposure time 0.33 min
[9] = residues 14-24 (SEQ ID NO: 2), exposure time 10.00 min
[10] = residues 14-24 (SEQ ID NO: 2), exposure time 60.00 min
[11] = residues 14-24 (SEQ ID NO: 2), exposure time 240.00 min
[12] = residues 41-47 (SEQ ID NO: 2), exposure time 0.00 min
[13] = residues 41-47 (SEQ ID NO: 2), exposure time 0.33 min
[14] = residues 41-47 (SEQ ID NO: 2), exposure time 10.00 min
[15] = residues 41-47 (SEQ ID NO: 2), exposure time 60.00 min
[16] = residues 41-47 (SEQ ID NO: 2), exposure time 240.00 min
[17] = residues 47-60 (SEQ ID NO: 2), exposure time 0.00 min
[18] = residues 47-60 (SEQ ID NO: 2), exposure time 0.33 min
[19] = residues 47-60 (SEQ ID NO: 2), exposure time 10.00 min
[20] = residues 47-60 (SEQ ID NO: 2), exposure time 60.00 min
[21] = residues 47-60 (SEQ ID NO: 2), exposure time 240.00 min

B1: 4B9: mouse monoclonal anti-Ang2 antibody; VH SEQ ID NO: 9, VL SEQ ID NO: 11; hybridoma KCLRF-BP-00418 (antibody, V domains shown)
VH: EVQLVESGGGLVKPGGSLKLSCAASGFTFSDYYMYWVRQTPEKRLEWVATISVGGSFTYYPDSVKGRFTISRDNAKNNLYLQMSSLKSEDTAMYYCARDWGLRPWFVYWGQGTLVTVSA
VL: DIVMTQSHKFMSTSVGDRVSITCKASQDVSTAVAWYQQKPGQSPKLLIYWASTRHTGVPDRFTGSGSGTDYTLTISSVQAEDLALYYCQQHYSTPPTFGSGTKLEIK
modifications: Heavy Chain Variable Region; Light Chain Variable Region
notes: mouse monoclonal anti-Ang2 antibody; hybridoma KCLRF-BP-00418
- Relative Uptake (Da) Δ (hAng2-RBD; [2]): 0.25 Da
- Relative Uptake (Da) Δ (hAng2-RBD; [3]): 0.34 Da
- Relative Uptake (Da) Δ (hAng2-RBD; [4]): 0.83 Da
- Relative Uptake (Da) Δ (hAng2-RBD; [5]): 0.78 Da
- Relative Uptake (Da) Δ (hAng2-RBD; [6]): 0.60 Da
- Relative Uptake (Da) Δ (hAng2-RBD; [7]): 0.01 Da
- Relative Uptake (Da) Δ (hAng2-RBD; [8]): 0.33 Da
- Relative Uptake (Da) Δ (hAng2-RBD; [9]): 1.50 Da
- Relative Uptake (Da) Δ (hAng2-RBD; [10]): 1.35 Da
- Relative Uptake (Da) Δ (hAng2-RBD; [11]): 0.80 Da
- Relative Uptake (Da) Δ (hAng2-RBD; [12]): 0.15 Da
- Relative Uptake (Da) Δ (hAng2-RBD; [13]): 1.02 Da
- Relative Uptake (Da) Δ (hAng2-RBD; [14]): 0.92 Da
- Relative Uptake (Da) Δ (hAng2-RBD; [15]): 1.15 Da
- Relative Uptake (Da) Δ (hAng2-RBD; [16]): 1.18 Da
- Relative Uptake (Da) Δ (hAng2-RBD; [17]): 0.05 Da
- Relative Uptake (Da) Δ (hAng2-RBD; [18]): −0.13 Da
- Relative Uptake (Da) Δ (hAng2-RBD; [19]): −0.06 Da
- Relative Uptake (Da) Δ (hAng2-RBD; [20]): −0.01 Da
- Relative Uptake (Da) Δ (hAng2-RBD; [21]): −0.11 Da
- epitope of hAng2-RBD to which the antibody binds (hAng2-RBD; deuterium uptake difference 0.5-1 Da or more considered significant): residues 14 to 24 of SEQ ID NO: 2; also recorded: residues 41 to 47 of SEQ ID NO: 2
- Relative Uptake (Da) hAng2-RBD + 4B9 (hAng2-RBD; [2]): 0.55 Da
- Relative Uptake (Da) hAng2-RBD + 4B9 (hAng2-RBD; [3]): 0.97 Da
- Relative Uptake (Da) hAng2-RBD + 4B9 (hAng2-RBD; [4]): 1.38 Da
- Relative Uptake (Da) hAng2-RBD + 4B9 (hAng2-RBD; [5]): 1.49 Da
- Relative Uptake (Da) hAng2-RBD + 4B9 (hAng2-RBD; [6]): 1.66 Da
- Relative Uptake (Da) hAng2-RBD + 4B9 (hAng2-RBD; [7]): 0.76 Da
- Relative Uptake (Da) hAng2-RBD + 4B9 (hAng2-RBD; [8]): 1.27 Da
- Relative Uptake (Da) hAng2-RBD + 4B9 (hAng2-RBD; [9]): 1.75 Da
- Relative Uptake (Da) hAng2-RBD + 4B9 (hAng2-RBD; [10]): 2.05 Da
- Relative Uptake (Da) hAng2-RBD + 4B9 (hAng2-RBD; [11]): 2.61 Da
- Relative Uptake (Da) hAng2-RBD + 4B9 (hAng2-RBD; [12]): 0.16 Da
- Relative Uptake (Da) hAng2-RBD + 4B9 (hAng2-RBD; [13]): 0.20 Da
- Relative Uptake (Da) hAng2-RBD + 4B9 (hAng2-RBD; [14]): 0.43 Da
- Relative Uptake (Da) hAng2-RBD + 4B9 (hAng2-RBD; [15]): 0.54 Da
- Relative Uptake (Da) hAng2-RBD + 4B9 (hAng2-RBD; [16]): 0.61 Da
- Relative Uptake (Da) hAng2-RBD + 4B9 (hAng2-RBD; [17]): 0.96 Da
- Relative Uptake (Da) hAng2-RBD + 4B9 (hAng2-RBD; [18]): 1.94 Da
- Relative Uptake (Da) hAng2-RBD + 4B9 (hAng2-RBD; [19]): 2.53 Da
- Relative Uptake (Da) hAng2-RBD + 4B9 (hAng2-RBD; [20]): 2.69 Da
- Relative Uptake (Da) hAng2-RBD + 4B9 (hAng2-RBD; [21]): 3.06 Da

B2: 2C8H11: humanized anti-Ang2 human IgG1 antibody from mouse 2C8; VH SEQ ID NO: 55, VL SEQ ID NO: 56 (antibody, V domains shown)
VH: QVQLVQSGAEVKKPGASVKVSCKASGYTFTSYWMHWVRQAPGQGLEWMGMIDPSDSETRLNQKFKDRVTMTRDTSTSTVYMELSSLRSEDTAVYYCARRFYYGSDWYFDVWGQGTLVTVSS
VL: DIQLTQSPSFLSASVGDRVTITCKASQDVGTAVAWYQQKPGKAPKLLIYWASTRHTGVPSRFSGSGSGTEFTLTISSLQPEDFATYYCQQYSSYPLTFGQGTKVEIK
modifications: human IgG1 constant regions; VH; VL
- vascular leakage suppression compared with Fc ([1]; FA/ICGA, 14 days after laser photocoagulation): 38.3%
- CNV regression compared with Fc (CD31+ CNV volume) ([1]; measured 14 days after laser photocoagulation): 65.3%
- vascular leakage reduction between 6 and 14 days after laser photocoagulation ([1]; within-group): 50.0%
